Data taken from the supplement of paper PMC11246515.
± gives the standard deviation of the averaged measurements.

Test: total protein half-life in vivo (active degradation + dilution); higher = more stable protein
[1] = E. coli NCM3722 delta-clpP delta-lon delta-hslV, growth: N-lim chemostat, doubling time 6 h
[2] = E. coli NCM3722 delta-clpP, growth: N-lim chemostat, doubling time 6 h
[3] = E. coli NCM3722 delta-hslV, growth: N-lim chemostat, doubling time 6 h
[4] = E. coli NCM3722 delta-lon, growth: N-lim chemostat, doubling time 6 h
[5] = wild type E. coli NCM3722, growth: C-lim chemostat, doubling time 3 h
[6] = wild type E. coli NCM3722, growth: C-lim chemostat, doubling time 6 h
[7] = wild type E. coli NCM3722, growth: C-lim chemostat, doubling time 12 h
[8] = wild type E. coli NCM3722, growth: N-lim chemostat, doubling time 6 h
[9] = wild type E. coli NCM3722, growth: P-lim chemostat, doubling time 6 h
[10] = wild type E. coli NCM3722, growth: P-lim chemostat, doubling time 12 h
[11] = E. coli NCM3722 delta-smpB, growth: N-lim chemostat, doubling time 6 h
[12] = wild type E. coli NCM3722, growth: N-lim chemostat, doubling time 12 h

Row | Sequence | total protein half-life in vivo [1] | total protein half-life in vivo [2] | total protein half-life in vivo [3] | total protein half-life in vivo [4] | total protein half-life in vivo [5] | total protein half-life in vivo [6] | total protein half-life in vivo [7] | total protein half-life in vivo [8] | total protein half-life in vivo [9] | total protein half-life in vivo [10] | total protein half-life in vivo [11] | total protein half-life in vivo [12]
1 | MMSAPKITFIGAGSTIFVKNILGDVFHREALKTAHIALMDIDPTRLEESHIVVRKLMDSAGASGKITCHTQQKEALEDADFVVVAFQIGGYEPCTVTDFEVCKRHGLEQTIADTLGPGGIMRALRTIPHLWQICEDMTEVCPDATMLNYVNPMAMNTWAMYARYPHIKQVGLCHSVQGTAEELARDLNIDPATLRYRCAGINHMAFYLELERKTADGSYVNLYPELLAAYEAGQAPKPNIHGNTRCQNIVRYEMFKKLGYFVTESSEHFAEYTPWFIKPGREDLIERYKVPLDEYPKRCVEQLANWHKELEEYKKASRIDIKPSREYASTIMNAIWTGEPSVIYGNVRNDGLIDNLPQGCCVEVACLVDANGIQPTKVGTLPSHLAALMQTNINVQTLLTEAILTENRDRVYHAAMMDPHTAAVLGIDEIYALVDDLIAAHGDWLPGWLHR | 4.14 h | 2.52 ± 0.52 h | 1.5 h | 2.73 h | 3.25 ± 0.39 h | 4.25 ± 0.26 h | 8.03 ± 1.2 h | 1.97 h | 4.92 ± 0.48 h | 9.8 ± 0.35 h |  | 
2 | MMSGEHTLKAVRGSFIDVTRTIDNPEEIASALRFIEDGLLLIKQGKVEWFGEWENGKHQIPDTIRVRDYRGKLIVPGFVDTHIHYPQSEMVGAYGEQLLEWLNKHTFPTERRYEDLEYAREMSAFFIKQLLRNGTTTALVFGTVHPQSVDALFEAASHINMRMIAGKVMMDRNAPDYLLDTAESSYHQSKELIERWHKNGRLLYAITPRFAPTSSPEQMAMAQRLKEEYPDTWVHTHLCENKDEIAWVKSLYPDHDGYLDVYHQYGLTGKNCVFAHCVHLEEKEWDRLSETKSSIAFCPTSNLYLGSGLFNLKKAWQKKVKVGMGTDIGAGTTFNMLQTLNEAYKVLQLQGYRLSAYEAFYLATLGGAKSLGLDDLIGNFLPGKEADFVVMEPTATPLQQLRYDNSVSLVDKLFVMMTLGDDRSIYRTYVDGRLVYERN | 5.05 ± 0.34 h | 3.95 ± 0.22 h | 4.26 ± 0.28 h | 4.12 ± 0.085 h | 3.26 ± 0.59 h | 6.35 ± 1.1 h | 10.2 ± 0.27 h | 3.78 ± 0.16 h | 5.87 h |  | 3.79 ± 0.042 h | 7.14 ± 1.4 h
3 | MMVTVVSNYCQLSQTQLSQTFAEKFTVTEELLQSLKKTALSGDEESIELLHNIALGYDKFGKEAEDILYHIVRTPTNETLSIIRLIKNACLKLYNLAHIATNSPLKSHDSDDLLFKKLFSPSKLMTIIGDEIPLISEKQSLSKVLLNDENNELSDGTNFWDKNRQLTTDEIACYLQKIAANAKNTQVNYPTGLYVPYSTRTHLEDALNENIKSDPSWPNEVQLFPINTGGHWILVSLQKIVNKKNNKLQIKCVIFNSLRALGYDKENSLKRVINSFNSELMGEMSNNNIKVHLNEPEIIFLHADLQQYLSQSCGAFVCMAAQEVIEQRESNSDSAPYTLLKNHADRFKKYSAEEQYEIDFQHRLANRNCYLDKYGDANINHYYRNLEIKHSQPKNRASGKRVS | 6.83 h |  |  |  |  |  |  |  |  |  |  | 
4 | MNAEKSPVNHNVDHEEIAKFEAVASRWWDLEGEFKPLHRINPLRLGYIAERAGGLFGKKVLDVGCGGGILAESMAREGATVTGLDMGFEPLQVAKLHALESGIQVDYVQETVEEHAAKHAGQYDVVTCMEMLEHVPDPQSVVRACAQLVKPGGDVFFSTLNRNGKSWLMAVVGAEYILRMVPKGTHDVKKFIKPAELLGWVDQTSLKERHITGLHYNPITNTFKLGPGVDVNYMLHTQNK | 4.74 ± 0.1 h | 4.09 ± 0.23 h | 3.48 ± 0.11 h | 4.02 ± 0.45 h | 2.45 ± 0.027 h | 4.96 ± 0.83 h | 6.694 ± 0.058 h | 3.85 ± 0.49 h | 3.13 ± 0.38 h | 5.66 ± 0.45 h | 3.46 ± 0.082 h | 5.66 ± 0.72 h
5 | MNAIISPDYYYVLTVAGQSNAMAYGEGLPLPDREDAPHPRIKQLARFAHTHPGGPPCHFNDIIPLTHCPHDVQDMQGYHHPLATNHQTQYGTVGQALHIARKLLPFIPDNAGILIVPCCRGGSAFTAGSEGTYSERHGASHDACRWGTDTPLYQDLVSRTRAALAKNPQNKFLGACWMQGEFDLMTSDYASHPQHFNHMVEAFRRDLKQYHSQLNNITDAPWFCGDTTWYWKENFPHSYEAIYGNYQNNVLANIIFVDFQQQGERGLTNAPDEDPDDLSTGYYGSAYRSPENWTTALRSSHFSTAARRGIISDRFVEAILQFWRER | 5.07 ± 0.92 h | 3.59 ± 0.15 h | 3.413 ± 0.026 h |  | 3.16 h |  | 8.77 ± 0.83 h | 3.38 h | 5.15 ± 0.32 h | 13.2 h | 3.46 ± 0.15 h | 
6 | MNALTAVQNNAVDSGQDYSGFTLTPSAQSPRLLELTFTEQTTKQFLEQVAEWPVQALEYKSFLRFRVAKILDDLCANQLQPLLLKTLLNRAEGALLINAVGVDDVKQADEMVKLATAVAHLIGRSNFDAMSGQYYARFVVKNVDNSDSYLRQPHRVMELHNDGTYVEEITDYVLMMKIDEQNMQGGNSLLLHLDDWEHLDNYFRHPLARRPMRFAAPPSKNVSKDVFHPVFDVDQQGRPVMRYIDQFVQPKDFEEGVWLSELSDAIETSKGILSVPVPVGKFLLINNLFWLHGRDRFTPHPDLRRELMRQRGYFAYASNHYQTHQ | 5.49 ± 0.24 h | 1.73 ± 0.11 h |  |  | 0.794 ± 0.23 h | 1.18 ± 0.23 h | 0.791 ± 0.35 h | 1.3 h |  | 1.17 ± 0.72 h |  | 1.1 ± 0.12 h
7 | MNDAVITLNGLEKRFPGMDKPAVAPLDCTIHAGYVTGLVGPDGAGKTTLMRMLAGLLKPDSGSATVIGFDPIKNDGALHAVLGYMPQKFGLYEDLTVMENLNLYADLRSVTGEARKQTFARLLEFTSLGPFTGRLAGKLSGGMKQKLGLACTLVGEPKVLLLDEPGVGVDPISRRELWQMVHELAGEGMLILWSTSYLDEAEQCRDVLLMNEGELLYQGEPKALTQTMAGRSFLMTSPHEGNRKLLQRALKLPQVSDGMIQGKSVRLILKKEATPDDIRHADGMPEININETTPRFEDAFIDLLGGAGTSESPLGAILHTVEGTPGETVIEAKELTKKFGDFAATDHVNFAVKRGEIFGLLGPNGAGKSTTFKMMCGLLVPTSGQALVLGMDLKESSGKARQHLGYMAQKFSLYGNLTVEQNLRFFSGVYGLRGRAQNEKISRMSEAFGLKSIASHATDELPLGFKQRLALACSLMHEPDILFLDEPTSGVDPLTRREFWLHINSMVEKGVTVMVTTHFMDEAEYCDRIGLVYRGKLIASGTPDDLKAQSANDEQPDPTMEQAFIQLIHDWDKEHSNE [P0A9U1] | 5.78 ± 0.23 h | 6.03 ± 0.77 h | 6.28 ± 0.41 h | 6.03 ± 0.23 h | 3.32 ± 0.15 h |  | 11.8 ± 2.2 h | 6.05 ± 0.092 h | 6.15 ± 0.14 h | 12.3 ± 0.47 h | 5.83 ± 0.5 h | 12.6 ± 1.7 h
8 | MNDYKMTPGERRATWGLGTVFSLRMLGMFMVLPVLTTYGMALQGASEALIGIAIGIYGLTQAVFQIPFGLLSDRIGRKPLIVGGLAVFAAGSVIAALSDSIWGIILGRALQGSGAIAAAVMALLSDLTREQNRTKAMAFIGVSFGITFAIAMVLGPIITHKLGLHALFWMIAILATTGIALTIWVVPNSSTHVLNRESGMVKGSFSKVLAEPRLLKLNFGIMCLHILLMSTFVALPGQLADAGFPAAEHWKVYLATMLIAFGSVVPFIIYAEVKRKMKQVFVFCVGLIVVAEIVLWNAQTQFWQLVVGVQLFFVAFNLMEALLPSLISKESPAGYKGTAMGVYSTSQFLGVAIGGSLGGWINGMFDGQGVFLAGAMLAAVWLTVASTMKEPPYVSSLRIEIPANIAANEALKVRLLETEGIKEVLIAEEEHSAYVKIDSKVTNRFEIEQAIRQA | 5.51 h | 5.38 ± 0.66 h |  | 5.73 ± 0.96 h | 3.17 ± 0.88 h | 5.45 ± 0.11 h | 11.2 ± 1.9 h | 5.15 ± 0.25 h | 5.42 ± 0.72 h | 8.82 ± 0.54 h | 5.16 ± 0.38 h | 10.1 ± 0.3 h
9 | MNEFPVVLVINCGSSSIKFSVLDASDCEVLMSGIADGINSENAFLSVNGGEPAPLAHHSYEGALKAIAFELEKRNLNDSVALIGHRIAHGGSIFTESAIITDEVIDNIRRVSPLAPLHNYANLSGIESAQQLFPGVTQVAVFDTSFHQTMAPEAYLYGLPWKYYEELGVRRYGFHGTSHRYVSQRAHSLLNLAEDDSGLVVAHLGNGASICAVRNGQSVDTSMGMTPLEGLMMGTRSGDVDFGAMSWVASQTNQSLGDLERVVNKESGLLGISGLSSDLRVLEKAWHEGHERAQLAIKTFVHRIARHIAGHAASLRRLDGIIFTGGIGENSSLIRRLVMEHLAVLGLEIDTEMNNRSNSCGERIVSSENARVICAVIPTNEEKMIALDAIHLGKVNAPAEFA | 3.9 h |  |  |  |  |  |  |  |  |  |  | 
10 | MNEFSILCRVLGSLYYRQPQDPLLVPLFTLIREGKLAANWPLEQDELLTRLQKSCDMTQVSADYNALFIGDECAVPPYRSAWVEGATEAEVRAFLSERGMPLADTPADHIGTLLLAASWLEDQSTEDESEALETLFSEYLLPWCGAFLGKVEAHATTPFWRTMAPLTRDAISAMWDELEEDSEE | 5.33 ± 0.97 h | 5.83 ± 1.6 h | 5.14 ± 0.17 h | 5.97 ± 1.5 h | 3.342 ± 0.021 h | 6.25 ± 0.39 h |  | 4.99 ± 0.71 h |  |  | 5.24 ± 0.65 h | 9.91 ± 0.97 h
11 | MNEHHQPFEEIKLINANGAEQWSARQLGKLLGYSEYRHFIPVLTRAKEACENSGHTIDDHFEEILDMVKIGSNAKRALKDIVLSRYACYLVVQNGDPAKPVIAAGQTYFAIQTRRQELADDEAFKQLREDEKRLFLRNELKEHNKQLVEAAQQAGVATATDFAIFQNHGYQGLYGGLDQKAIHQRKGLKKNQKILDHMGSTELAANLFRATQTEEKLKRDGVNSKQQANTTHFDVGRKVRQTIQELGGTMPEELPTPQVSIKQLENSVKITEKK |  |  |  |  | 2.12 h | 3.02 h | 5.87 h |  |  |  |  | 
